Source: the supplement of paper PMC9170038

Test system: MS2 coat protein
Test: apparent KD of MS2 coat protein; designed switch direction (-1 OFF switch, 1 ON switch): -1; higher = weaker reporter binding
Summary of the method: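 Designed RNA switches sharing common flanks were transcribed on Illumina chips by stalled E. coli RNA polymerase. They were titrated with SNAP-549-labelled MS2 coat protein, from 0.7 or 1.5 nM doubling to 3 µM, in Tris-HCl pH 7.5 buffer with KCl, MgCl2, BSA, DTT, tRNA and Tween-20. Titrations ran without input, with 200 uM small-molecule ligand, or with an oligonucleotide input. The apparent KD of each design is the median over its clusters, after curve-fitting of normalised cluster fluorescence.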

[1] = input ligand: microRNA oligo, concentration not stated
[2] = Eterna round: R95, input ligand: microRNA oligo, concentration not stated
[3] = Eterna round: R95, input ligand: FMN 200 uM
[4] = Eterna round: R95, input ligand: none

Sequence	apparent KD of MS2 coat protein (input ligand: FMN 200 uM)	apparent KD of MS2 coat protein [1]	apparent KD of MS2 coat protein (input ligand: none)	apparent KD of MS2 coat protein [2]	apparent KD of MS2 coat protein [3]	apparent KD of MS2 coat protein [4]
CGGGCCCAGGCAGGAUAUGUACAGCCACAAAACCCUCGUGUGAGGGACAUGAGGAUCACCCAUGUAUAGAAGGGCCAGCGCGUA [Xeditein] (Eterna round: R96, puzzle: Exclusion NG 2)	26.3 nM	14 nM	22 nM			
CCAUACUGUAAGCUUCCCAACAUGAGGAUCACCCAUGUGGACCACGGCUUCGGUCAGCUAACCUGCUCGUCGUUGAU [Eternabot (L2) Solution 31] (Eterna round: R97, puzzle: Sensor, turn-off variant 1)	15.2 nM		16.9 nM			
GCAGCAUAGUCGGAAUACGACAUACAUGAGGAUCACCCAUGUCAGGAUAUGGUCUGGAUUACAGGCCAGAAGGGACAAAGCUGC [Eli exng3 - 007] (Eterna round: R96, puzzle: Exclusion NG 3)	24.8 nM	17.1 nM	20.1 nM			
CUCAUUAGUCAGGAUAUCGUGUGGGUAAUUGUACGAGAAGGGACGACAUGAGGAUCACCCAUGUGGUCUUUGGG [JR_Ex6_Sub085] (Eterna round: R97, puzzle: Exclusion 6)	70.6 nM		165 nM			
CCUCCACAUGAGGAUCACCCAUGUCAGGAUAUCGUGUGUUUUUUUUCGGUCGUGCGUGCGAGAAGGGACGUCUU (puzzle: Exclusion 1)				24.8 nM		
ACAUGAGGAUCACCCAUGUUUGGCUGGUCCUCUCCGGCUGUCGAGGAUAUAGUACGGUAUCCGCGCUAGAAGGUGAGGGCCGGC [Aenatbe] (Eterna round: R96, puzzle: Exclusion NG 3)	16.4 nM	10.1 nM	17.1 nM			
ACUGGUCGAGGAUAUGCAAUCGUGCUUCGGCACGUAAGAUCACAUGAGGAUCACCCAUGUAGAAGGCGACCAGU [E2/3-A2] (Eterna round: R97, puzzle: Exclusion 2)	81.7 nM		21.2 nM			
GAUCAGUCAGGAUAUCAAUCCGCCUGUGAUACGCAGGCGGCUGAGAAGGGACAUGAGGAUCACCCAUGUAAAGA [jl-ex4-4.22 ViennaUCT mod] (Eterna round: R97, puzzle: Exclusion 4)	191 nM		80.4 nM			
ACAGUUCUGCAAGGAUAUCGUCCUAGUUUGUUUCGAGAAGGUGCUUUAGUUUAUUCCUUUUGUUUACAUGAGGAUCACCCAUGU [JR_ExcNG1_Sub050] (Eterna round: R96, puzzle: Exclusion NG 1)		18 nM				
ACUUAUUGAGGAUAUACAGAUUAUUACAUGAGGAUCACCCAUGUUCUUCAAUGUAUAUAUGUAGAAGGCAGAAGAA [JL-ex5-4.25 Malcolm mod] (Eterna round: R97, puzzle: Exclusion 5)	179 nM		56.7 nM			
UGAUUCGGAGGAUAUACAUGAGGAUCACCCAUGUUACCGGAAGGUAGGAGAGGUCGCCGUAGAAGGCUGCACAU [Eternabot (Original) Solution 7] (Eterna round: R97, puzzle: Exclusion 3)	30.4 nM		31.5 nM			
GAGUGGCAAGGAUAUACAGAGGAGAGGAAGGCAAGAGGUGGACAUGAGGAUCACCCAUGUAGAAGGUGCAGAGG [JR_Exclu2_Sub025] (puzzle: Exclusion 2)				134 nM	157 nM	288 nM
CCGCAAAUGGAGGAUAUCGUAUCGGAUACGAUACGAGAAGGCUAUACAUGAGGAUCACCCAUGUGUCCUAGCGG [Fiskers Ex 6 - 46] (puzzle: Exclusion 6)				11.4 nM		
UCAUACGUUGAGGAUAUCUCAGUUAGAAUAUUUAGAGAAGGCGAUACAUGAGGAUCACCCAUGUUUAUGGGCAU [Ex-6 Malc#6] (puzzle: Exclusion 6)				286 nM	346 nM	461 nM
GAUUAUGCGAGCUUUAGGGACAUGAGGAUCACCCAUGUUCGUCUUAUUAGUCUAGGUACACUAACAUACCUAAAUCU [JMF 18] (puzzle: Sensor v3, turn-off variant 1)				38.8 nM	21.3 nM	21.9 nM
CUGAUGUGAGGAUAUGUGAUCUGCCUUCUAUAUAGAUGAUUACAGAAGGCACAUGAGGAUCACCCAUGUAGAUC [Ex4 - 3 - 25] (puzzle: Exclusion 4)				51.8 nM		
AUAAAACAUGAGGAUCACCCAUGUCAGGAUAUACGACUCCAACCUAACAGCUUGGACCGUAGAAGGGACAAGGG [Exclusion 1 (MOD2.2 Esqu)] (Eterna round: R97, puzzle: Exclusion 1)	91.6 nM		109 nM			

Sequence	apparent KD of MS2 coat protein (input ligand: FMN 200 uM)	apparent KD of MS2 coat protein [1]	apparent KD of MS2 coat protein (input ligand: none)	apparent KD of MS2 coat protein [2]	apparent KD of MS2 coat protein [3]	apparent KD of MS2 coat protein [4]
UAUUAGCAAGUGAGGUCCCACAUGAGGAUCACCCAUGUGCUCGUCUUAUAAGGUACUGUGACGAUAGUCACGGUACC [Mat - Sensor, turn-off var - Eli Mod - D51] (Eterna round: R97, puzzle: Sensor, turn-off variant 1)	45.4 nM		45.5 nM			
UGAUCUAGCGGAGGAUAUACAUGAGGAUCACCCAUGUAUAGGCUAUGACCGUAGUCGUGGCACGUGUAGAAGGCCGCUAGAUCU [JL ENG2 3.77] (Eterna round: R96, puzzle: Exclusion NG 2)	12.7 nM	8.1 nM	12.8 nM			
CUGUACUGAGGAUAUACAUGAGGAUCACCCAUGUGAUUUGGUGCACGCGUACGUGUACGUAGAAGGCAGUACAG [Mat - Exclusion 3 - Eli Mod - D39] (Eterna round: R97, puzzle: Exclusion 3)	317 nM		25.5 nM			
AAGCGCGAGGCAGGAUAUGCAGAGCGGGUGGCCCGUGCAGAAAAUAACAUGAGGAUCACCCAUGUGCAGAAGGGCCGGGUGACC [Anataredra] (Eterna round: R96, puzzle: Exclusion NG 2)	60.5 nM	36.1 nM	72.9 nM			
CGUUCGCGUGUAGGAUAUGUGUCUGUGUCGGGCGCAGAAGGACAUGAGGAUCACCCAUGUCUGCGGGUGUGGGCGCUCUCUGCG [-29, -28 kcal A 14%] (Eterna round: R96, puzzle: Exclusion NG 1)	69.6 nM	18.2 nM	26.9 nM			
GAAAAGAGAGGAUAUACAAGAAGAAAAGAAAAGAAAAGAAAACAUGAGGAUCACCCAUGUAGAAGGCUCAAAAG [Default title] (puzzle: Exclusion 2)				12.7 nM	18.2 nM	20.3 nM
UCCCGGGUAGGAUAUGCUAGGGUAUGUUCACUUGAUUUAGGACAUGAGGAUCACCCAUGUAGAAGGGCCCGUCG [Eternabot (L1) Solution 25] (Eterna round: R97, puzzle: Exclusion 2)	286 nM		459 nM			
AAAUAUCAUGUAGGAUAUGGUAGGCGAACCUUACCAGAAGGACAUGAGGAUCACCCAUGUGCUGAGUUGUCCGUAGACAGCUCU [Ex NG1 #4] (Eterna round: R96, puzzle: Exclusion NG 1)	74.1 nM	63.7 nM	78.7 nM			
CUGGUCCGAGGAUAUAUUAAGUGAUACAUGAGGAUCACCCAUGUAAUUUAAUGGAAGUAAAUAGAAGGCGGACUAG [Mat - Exclusion 5 - JL mod - D50] (puzzle: Exclusion 5)				53 nM	79.8 nM	80.5 nM
AGAUCACAUGAGGAUCACCCAUGUGAGGAUAUGAUACUAUGUACUUCGGUACAUAGUAUCAGAAGGCGCGUGAA [Ex1-3: 72] (puzzle: Exclusion 1)				28.5 nM		
GGUUGGCGAGGAUAUACAUGAGGAUCACCCAUGUGAGAGGAAAAAGUGAGGAAGAAAAGUAGAAGGCGCUGACG [salish99_ex3_r3_002] (puzzle: Exclusion 3)				60.8 nM	142 nM	56.7 nM
CACGAAAUGUGAGGAUAUGUGCGACAAAGUUGCACAGAAGGCACAUGAGGAUCACCCAUGUAAGCUAGGUCGAAAGACCUAGCG [Omei Exc(NG)1 Av2] (Eterna round: R96, puzzle: Exclusion NG 1)	269 nM	56.3 nM	89.8 nM			
GAUCCUUUUACGGACGUCUCGAAACAUGAGGAUCACCCAUGUGAGGAUAUCUCCGAGAGAUCGGCAGAGAAGGCACAAUAACAA [MOD Eternabot solution 19 score 84.66] (Eterna round: R96, puzzle: Exclusion NG 3)	91.4 nM	19.7 nM	50.3 nM			
UAGAAUCGAGGAUAUACAUGAGGAUCACCCAUGUGUGGCCACUUGGUGUGGUCGUCAGGUAGAAGGCGAUUACA [Exclusion 3 - Mod of Jieux's Gilly Gone Silly 23 v.4] (puzzle: Exclusion 3)				30.9 nM	26.9 nM	39.4 nM
CACUUACAUGAGGAUCACCCAUGUGAGGAUAUCGUGACCUGACGAGAAGUCAAUGUCACGAGAAGGCACGUGGG [Exclusion 1 (Mod 3 solution 97 by Eternabot)] (Eterna round: R97, puzzle: Exclusion 1)	11.9 nM		35.9 nM			
CUGAGGUAGCGGUCCUAUGACAUGAGGAUCACCCAUGUACCUUGCUACAAGCUUUUUGCUCGUCUUAUGAUUCUCGG [JL Atriat mod 8] (Eterna round: R96, puzzle: Sensor v3, turn-off variant 1)	81.3 nM	154 nM	82.7 nM			
CUUCAGUGAGGAUAUGGCAUGCGCUGAUAAGCGCUCUCACGCCAGAAGGCACAUGAGGAUCACCCAUGUAAAAC [Eddionce] (puzzle: Exclusion 4)				41.3 nM		
